Results as given in the nanobody polyreactivity screen of Harvey et al. (2022).

Assay: yeast display, Sf9 membrane polyspecificity reagent, FACS + sequencing; frameworks hold sequencing errors
In short: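 After 36–48 hours of galactose induction, yeast (Saccharomyces cerevisiae BJ5465) displaying a synthetic nanobody library were stained at 4 °C for 1 hour with 10% biotinylated, detergent-solubilized Sf9 membrane reagent. Streptavidin microbeads enriched the stained cells before FACS sorting into low and high (top ~1%) gates on anti-HA and streptavidin fluorescence. Each clone's polyreactivity label reflects its gate of origin.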

Sequence | polyreactivity (PSR sort gate)
QVQLVESGGGLVQAGGSLRLSCAASGRTLVGNAMGWYRQAPGKERELVAAISWSGGSTNYADSVKGRFTISRDNAKNTVYLQMNSLKPEDTAVYYCAASVYTYRYWDYYWGQGTQVTVSS | high polyreactivity
QVQLVESGGGLVQAGGSLRLSCAASGSIFRSYAMGWYRQAPGKERELVAAISRRGSSTYYADSVKGRFTISRDNAKNTVYLQMNSLKPEDTAVYYCAADRVVPRGRYGGDYWGQGTQVTVSS | high polyreactivity
QVQLVESGGGLVQAGGRLRLSCAASGSIFNRYAMGWYRQAPGKERELVAAISSTGSTYYADSVKGRFTISRDNAKNTVYLQMNSLKPEDTAVYYCNADATHDLLRVDTYEYWGQGTQVTVSS | low polyreactivity
QVQLVESGGGLVQAGGSLRLSCAASGNTFNDYAMGWYRQAPGKERELVASISSGGSTYYADSVKGRFTISRDNAKNTVYLQMNSLKPEDTAVYYCAAEWHYIYAYDYWGQGTQVTVSS | low polyreactivity
QVQLVESVGGLVQAGGILRLSCAASGSTFLDNAMGLYRQAPGKERELVAAITQSGSSTYYADSVKGRFTISRDNAKNTVYLQMNSLKPEDTAVYYCAADVPIISFDYWGQGTQVTVSS | low polyreactivity
QVQLVESGGGLVQAGGSLRLSCAASGRIFRYYTMGWYRQAPGKERELVAAISWTGGRTYYADSVKGRFTISRDNAKNTVYLQMNSLKPEDTAVYYCAATNRYYIFDYWGQGTQVTVSS | high polyreactivity
QVQLVESGGGLVQAGGSLRLSCAASGRTFVKNAMGWYRQAPGKERELVATISSSGASTRYADSVKGRFTISRDNAKNTVYLQMNSLKPDDSAVYYCAAGYGFPRDYWGQGTQVTVSS | high polyreactivity
QVQLVESGGGLVQAGGSLRLSCAASGFTFSQYAMGWYRQAPGKERELVAAISRSGGSTYYADSVKGRFTISRDNAKNTVYLQMNSLKPEDTAVYYCAAQPGRRAGRSGFDYWGQCTQVTVSS | high polyreactivity
QVQLVESGGGLVQAGGSHRLSCAASGITFYGNAMGWYRQAPGKERELVAGITSGGNTYYADSVKGRFTISRDNAKNTVYLQMNSLKPEDTAVYYCAAGYFSYRSYYYYRYDYWGQGTQVTVSS | high polyreactivity
QVQLVESGGGLVQAGGSLRLSCAASGRIFGRYAMGWYIQAPGKERELVAAISRRGVSTTYADSVKGRFTISRDNAKNTVYLQMNSLKPEDTAVYYCAAVRYGYSSTRDYLGQGTQVTVSS | high polyreactivity
QVQLLESGGGLVQAGGSVRLSCAASGFTYRYYAMGWYRQEPGKERELVASISFSGTRTYYADSVKGRFTISRDNAKNTVFLQMNSLKPHDTAVDYCNACLYSRYEFDYWGQGSQVTVSS | high polyreactivity
QVQLVESRGGLVQAGGSLRLSCAASGRNFPINTMGWYRQAPGKERELVAAIRTSGSSTYADSVKGRFTISRDNAKNSVYLQMNSLKPEDTAVYYCNTKYPGRGYYWGQGTQVTVSS | high polyreactivity
QVQLVESGGGLVQAGGSLRLSCAASGFTFGPYDMGWYRQAPGKERELVAAITDSSGSTHYADSVKGRFTISRDNAKNTVYLQMNSLKPEDTAVYYCAAVVYYTFDYWGQGTQVTVSS | low polyreactivity
QDQHVESGGGLVQAGGSLRLSCAASGSTYRDNAMGWSRQAPGKERELVAAISVSGASTYYADSVKGRFTISRDNAKNTVYLQMNSLKPEDTAVYDCAKSLYQALSLSFFIFGYWGQGTQVTVSS | low polyreactivity
QVQLVESGGGLVQAGGSLRLSCAASGRTFGYYAMGWYRQAPGKERELVAPISWSGANTYYADSVKGRFTISRDNAKNTVYLQMNSLKPEDTAVYYCAAVRYYSYAYSIRYGYWGQGTQVTVSS | high polyreactivity
QVQLVESGGGLVQAGGSLRLSSAASGFTLIPNGMGWYRQAPGKEREFVAAISGTGGRTSYADSVKGRFTISRDNAKNTVYLQMHSLKPEDTAVYYCNARVLVYSERAYKYYLLYDYWGQGTQVTVSS | high polyreactivity

Sequence | polyreactivity (PSR sort gate)
QVQLVESGGGLVQAGGSLRLSCAASGRIFLDYVMGWYRQAPGKEREVVAAISWSGDRTDYADSVKGRFTISLDNAKNTVYLQMNSLKPEDTAVYYCATTWYFAYSDDYKFDYWGQGTQVTVSS | low polyreactivity
QVQLVESGGGFVQAGGSLRLSCAASGITFYSNAMGWYRQAPGKERELGAAISTTGGRTYYADSVKRRFTISRDNAKNTVYLHMNSLKPEDTAVYYCTKAWGRGSLTEPYDYWGQGTQVTVSS | high polyreactivity
QVQLVESGGGLVQAGGSLRLSCAASGSTFYLYGMGWYRQAPGKERELVAAITYSGGSTYYADSVKGRFTISRDNAKNTVYLQMNSLKPEDTAVYYCNARSQWRSSRFYYWGQGTQVTVSS | high polyreactivity
QVQLVESGGGLVQAGGSLRLSCAASGSIFLYNAMGWYRQAPGKERELVATITYIGGRTYYADSVKGRFTISRDNAKNTVYLQMNSLKPEDTAVYYCAAEYYVISSPSFYEYDYWGQGTQVTVSS | low polyreactivity
QVQLVESGGGLVQAGGSLRLSCAASGSTIFSYAMGWYRQAPGKERELVAAISWIDDGTYYADSVKGRFTISRDNAKNTVYLQMNSLKPEDTAVYYCAADIGAYRTWDYEYWGQGTQVTVSS | low polyreactivity
QVQLVESAGRLVQAGGSLRLSCAASGFTFRKNAMGWYRQAPGKERELVAAITFSGGSTYYADSVKGRFTISRDNAKNTVYLQMNSLKPEDTAVYFCGTRYYYHYPRKHIYNYWGQGTQVTVSS | high polyreactivity
QVQLVESGGGLVQAGASLRLSCAASGRTLTGYAMGWYRQAPGKERELVAAITWRDSTYYADSVKGRFTISRDNAKNTVYLQMNSLKPEDTAVYYCNADNATYFVYEFNYWGQGTQVTVSS | low polyreactivity
QVQLVESGGGLVQAGGSLRLSSAASGRTFYYNAMGWYRQAPGKEREFVAVMTSSGGSTYYADSVKGRFTISRDNAKNTVYLQMNSLKPEDTAVYYSAASNTEQQLVVLIEVYYTRYDYWGQGTQETVSS | low polyreactivity
QVQLVESGGRLVQAGGSIRLSCAASGGIFTAYAMGCYRQAPGKEREFVAGIDRSGGRTYYADSVKGRFTISRDNAKNNVYLQMNSLKPEDTAVYYCYARGYVYQNQLYYYWGQGSQVTVSS | high polyreactivity
QVQLVESGGGLVQAGGSLRLSCAASGFTFYPYAMGWYRQAPGKERELVAASTASGGSTYYADSVKGRFTISRDNAKNTVYLQMNSLKPEDTAVFYCAKGWVSYWRYKNEYWGQGTQVTVSS | high polyreactivity
QVQLVESGGGLVQAGVSLRLICAASGFIFPTKVMGWYRQAPATEREFVASITWRGGGTFYADSVKGRFTISRDNAKNTVYLQMNRLKPEDTAVYYCAAGRSWSSFWKYDYWGQGTQVTVSS | low polyreactivity
QVQLVESGGGLVQAGGSLRLSCAASGRIFIPYVMGWYRQAPGKERELVAVITESGGSTYYADSVKGRFTISRDNAKNTVYLQMNSLKPEDTAVYYCATRYGRGARTYHYYYWGQGTQVTVSS | high polyreactivity
QVQLVDTGGGLVQAGGSLRFSCAASGSIFQVYAMGWYRQAPGKERELVASITSSGGSTYYADSVKGRFTISRDNAKNTVYLQMNSLKTEDTAVYYCADDQWSQDYDYWGQGTQVTVSS | low polyreactivity
QVQLVESGGGLVQAGGSLRLSCAASGSTFYIYAMGWYRQAPGKDRELVARISGSGGSTYYADSVKGRITISRDNAKNTVYLQMNSLKPEDTAVYYCAATKFNSFYWRYGYWGQGTQVTVSS | low polyreactivity
QVQLVESGGGLVQAGGSLRLSCAASGSTFKRYAMGWYRQAPGKERELVAAISRRGGSTYYADSVKGRFTISRDNAKNTVYLQMNSLKPEDTAVYYCAARIASHLYYYWGQGTQVTVSS | high polyreactivity
